The target in the experiment is trypsin. The experiment is described as follows: trypsin inhibition assay, 10 nM each, chromogenic substrate; Ka calculated.

Regarding “human growth hormone/alpha-1 antitrypsin fusion [T109wt: α1AT/hGH]”, the Ka was 7.5e+08 M⁻¹.

The values are drawn from patent US20120094356A1.
